± gives the uncertainty stated by the source.
Assay: self-splicing fitness, log relative to wild type (ln ratio); higher = more splicing; Tetrahymena group I intron in knt gene, E. coli kanamycin selection, DiMSum; sequences stand for … in CUCUCU…GGAGGGAAAAGUUAUCAGGCAUGCACCUGGUAGCUAGUCUUUAAACCAAUAGAUUGCAUCGGUUUAAAAGGCAAGACCGUCAAAUUGCGGGAAAGGGGUCAACAGCCGUUCAGUACCAAGUCUCAGGGGAAACUUUGAGAUGGCCUUGCAAAGGGUAUGGUAAUAAGCUGACGGACAUGGUCCUAACCACGCAGCCAAGUCCUAAGUCAACAGAUCUUCUGUUGAUAUGGAUGCAGUUCACAGACUAAAUGUCGGUCGGGGAAGAUGUAUUCUUCUCAUAAGAUAUAGUCGGACCUCUCCUUAAUGGGAGCUAGCGGAUGAAGUGAUGCAACACUGGAGCCGCUGGGAACUAAUUUGUAUGCGAAAGUAUAUUGAUUAGUUUUGGAGUACUCGUGGUCG
Procedure, shortened: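 Fitness was computed with DiMSum as the error-weighted combination of replicate fold changes, kanamycin versus none, each normalised to wild type. The library randomised all eight intron nucleotides of the P1ex region, with the intron placed in the knt kanamycin-resistance gene on pET-22b(+) in E. coli BL21(DE3). Six replicate transformations were grown overnight at 37°C or 30°C on LB agar with or without 25 μg/mL kanamycin, plus 100 μg/mL carbenicillin, 50 μM IPTG and 0.2% rhamnose. Pooled colonies were amplicon-sequenced on an Illumina HiSeq 2500.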

Sequence	self-splicing fitness (ln) (30 °C)	self-splicing fitness (ln) (37 °C)
AGUCAGCAAUAUUACGAUGG	-1.55 ± 0.062	-0.364 ± 0.083
AGUCAGCAAUAUUACGCCGU	-1.26 ± 0.15	-0.55 ± 0.21
AGUCAGCAAUAUUACGCGGC	-3.02 ± 0.29	
AGUCAGCAAUAUUACGGAAG	-3.36 ± 0.17	-1.67 ± 0.16
AGUCAGCAAUAUUACGGCGA	-0.359 ± 0.091	0.00759 ± 0.14
AGUCAGCAAUAUUACGGGCG	-0.963 ± 0.093	0.189 ± 0.13
AGUCAGCAAUAUUACGGGGA	-3.08 ± 0.19	-1.42 ± 0.18
AGUCAGCAAUAUUACGGUGA	-1.87 ± 0.12	-0.192 ± 0.096
AGUCAGCAAUAUUACGUACA	-0.657 ± 0.074	0.284 ± 0.11
AGUCAGCAAUAUUACGUGAC	-2.96 ± 0.24	-2.86 ± 0.2
AGUCAGCAAUAUUACGUGCA	-0.269 ± 0.073	-0.501 ± 0.099
AGUCAGCAAUAUUACGUGUA	-3.11 ± 0.14	-0.76 ± 0.086
AGUCAGCAAUAUUACGUUGG	-2.9 ± 0.17	-1.83 ± 0.18
AGUGAGCAAUAUUACGAAGU	-2.49 ± 0.26	0.907 ± 0.22
AGUGAGCAAUAUUACGACGG	-3.25 ± 0.28	-0.814 ± 0.22
AGUGAGCAAUAUUACGAGCA	-0.561 ± 0.11	-0.436 ± 0.11
AGUGAGCAAUAUUACGAUUA	-2.67 ± 0.3	-1.47 ± 0.37
AGUGAGCAAUAUUACGCCAG		-2.12 ± 0.45
AGUGAGCAAUAUUACGCGAG	-2.91 ± 0.49	
AGUGAGCAAUAUUACGCGCC	-2.21 ± 0.23	
AGUGAGCAAUAUUACGGAAC	-2.5 ± 0.43	
AGUGAGCAAUAUUACGGACU	-1.28 ± 0.12	-0.761 ± 0.13
AGUGAGCAAUAUUACGUAUC	-3.05 ± 0.34	

Sequence	self-splicing fitness (ln) (30 °C)	self-splicing fitness (ln) (37 °C)
AGUGAGCAAUAUUACGUCCG		-0.894 ± 0.22
AGUGAGCAAUAUUACGUCGG	-3.07 ± 0.31	-1.97 ± 0.36
AGUGAGCAAUAUUACGUCUU	-1.07 ± 0.082	-1.31 ± 0.1
AGUGAGCAAUAUUACGUGAG	-3.58 ± 0.31	-0.839 ± 0.19
AGUGAGCAAUAUUACGUGCU	-1.86 ± 0.28	
AGUGAGCAAUAUUACGUGGA	-2.63 ± 0.32	-1.49 ± 0.28
AGUGAGCAAUAUUACGUGUA	-3.6 ± 0.28	-2.84 ± 0.23
AGUGAGCAAUAUUACGUUAG	-2.97 ± 0.19	-2.03 ± 0.17
AGUGAGCAAUAUUACGUUCG	-3.26 ± 0.16	-2.22 ± 0.14
AGUGAGCAAUAUUACGUUUU	-3.26 ± 0.14	-2.57 ± 0.15
AGUUAGCAAUAUUACGAAGA	-1.18 ± 0.4	-2.26 ± 0.34
AGUUAGCAAUAUUACGAAUA	-1.43 ± 0.14	-0.681 ± 0.21
AGUUAGCAAUAUUACGAAUG	-2.33 ± 0.16	-1.56 ± 0.17
AGUUAGCAAUAUUACGAGAU	-2.15 ± 0.18	-1.17 ± 0.16
AGUUAGCAAUAUUACGAGCC	-1.84 ± 0.13	-1.12 ± 0.13
AGUUAGCAAUAUUACGAUGG	-2.45 ± 0.17	-1.51 ± 0.19
AGUUAGCAAUAUUACGAUUA		-0.435 ± 0.33
AGUUAGCAAUAUUACGAUUG	-3.3 ± 0.27	-1.84 ± 0.24
AGUUAGCAAUAUUACGCAAC	-2.75 ± 0.24	-3.1 ± 0.37
AGUUAGCAAUAUUACGCAAG	-2.63 ± 0.12	-1.24 ± 0.13
AGUUAGCAAUAUUACGCAUC	-3.63 ± 0.43	-1.68 ± 0.23
AGUUAGCAAUAUUACGCCAA		-1.58 ± 0.43

Reference: the supplement of paper PMC7877785
